In patent US20060235215A1 (published 2006):

B8: Hypothetical Protein 006819-2510, Similar to Hemerocallis Senescence-Related Protein 5, bait fragment aa 1-273 (other)
chain: MAFRLSNSLLGILNAVTFLLSVPVLGGGIWLATRADGTECERYFSAPVIAFGVFLLLVSLAGLVGACCRVNCLLWFYLVAMFVLIVVLFCFTVFAFVVTNKGAGEAVSGRGYKEYRLGDYSNWLQKRMENSKNWNRIRSCLQDSKVCKKLQDKNWDRTQFFKADLSPLESGCCKPPSSCNFLYVSGTNWTKVPTNSSDPDCNTWVDDGTQLCYNCQSCKAGAVATLKRDWKRVAVVCIVFLVFIVIVYSLGCCAFRNNRRDNRGAYRGAAWKG
notes: bait; also called Os006819-2510; PN20462

Experiments:
Test in all cases: yeast two-hybrid
[1] = molecular target: T1, Pyruvate orthophosphate dikinase-like PN20674, prey clone aa 64-263 (Oryza sativa, UniProt Q6AVA8 64-263)
T1 construct: prey; AD fusion; input trait library
T1 sequence: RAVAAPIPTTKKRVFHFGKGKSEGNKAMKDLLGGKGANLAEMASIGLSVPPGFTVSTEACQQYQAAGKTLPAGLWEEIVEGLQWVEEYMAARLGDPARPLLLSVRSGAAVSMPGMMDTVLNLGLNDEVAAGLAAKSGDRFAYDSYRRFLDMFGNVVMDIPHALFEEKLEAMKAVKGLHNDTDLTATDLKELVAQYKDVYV

[2] = molecular target: T2, Pyruvate orthophosphate dikinase-like PN20674, prey clone aa 71-298 (Oryza sativa, UniProt Q6AVA8 71-298)
T2 construct: prey; AD fusion; input trait library
T2 sequence: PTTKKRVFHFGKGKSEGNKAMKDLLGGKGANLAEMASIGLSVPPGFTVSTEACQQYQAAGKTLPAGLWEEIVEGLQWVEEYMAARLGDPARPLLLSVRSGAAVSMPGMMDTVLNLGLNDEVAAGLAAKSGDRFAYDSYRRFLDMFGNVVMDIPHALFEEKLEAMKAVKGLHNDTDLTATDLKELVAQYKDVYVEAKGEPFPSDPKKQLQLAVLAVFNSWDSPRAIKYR

[3] = molecular target: T3, O. sativa Putative 14-3-3 Protein, prey clone aa 53-259 (Oryza sativa, UniProt Q06967 53-259)
T3 construct: prey; AD fusion; input trait library; four clones; also called Os008938-3209; PN20215
T3 sequence: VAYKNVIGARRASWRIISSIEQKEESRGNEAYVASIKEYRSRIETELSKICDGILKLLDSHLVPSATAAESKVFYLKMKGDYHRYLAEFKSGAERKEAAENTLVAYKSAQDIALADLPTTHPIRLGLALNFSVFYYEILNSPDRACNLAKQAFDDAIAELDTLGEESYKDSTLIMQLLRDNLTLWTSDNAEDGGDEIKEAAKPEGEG

[4] = molecular target: T4, O. sativa Chloroplast Ribulose Bisphosphate Carboxylase, Large Chain, prey clone aa 287-462 (Oryza sativa, UniProt P0C510 287-462)
T4 construct: prey; AD fusion; input trait library; also called OsRBCL; PN23426

[5] = molecular target: T5, O. sativa Histone Deacetylase HD1, prey clone aa 90-221 (Oryza sativa, UniProt Q7Y0Y8 90-221)
T5 construct: prey; AD fusion; output trait library; also called OsAAK01712; PN24059

[6] = molecular target: T6, Novel Protein 23053, Fragment, Similar to Arabidopsis Putative Na+-Dependent Inorganic Phosphate … (Oryza sativa, UniProt Q8W0H5 141-320)
T6 construct: prey; AD fusion; input trait library; two clones; also called OsPN23053
T6 sequence: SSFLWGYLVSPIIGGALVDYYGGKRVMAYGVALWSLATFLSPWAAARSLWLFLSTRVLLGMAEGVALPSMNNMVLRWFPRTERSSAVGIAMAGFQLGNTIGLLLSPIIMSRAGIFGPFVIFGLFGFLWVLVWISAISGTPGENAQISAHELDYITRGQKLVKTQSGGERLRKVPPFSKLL

[7] = molecular target: T7, Beta-Expansin EXPB2, prey clone aa 80-218 (Oryza sativa, UniProt O24230 80-218)
T7 construct: prey; AD fusion; input trait library; two clones; also called OsEXPB2; PN19902
T7 sequence: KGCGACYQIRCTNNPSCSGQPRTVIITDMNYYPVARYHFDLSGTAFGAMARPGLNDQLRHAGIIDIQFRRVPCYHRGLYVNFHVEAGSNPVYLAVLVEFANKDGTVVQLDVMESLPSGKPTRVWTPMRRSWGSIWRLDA

[8] = molecular target: B8
[9] = molecular target: T8, Beta-Expansin EXPB2, prey clone aa 80-207 (Oryza sativa, UniProt O24230 80-207)
T8 construct: prey; AD fusion; input trait library; also called OsEXPB2; PN19902
T8 sequence: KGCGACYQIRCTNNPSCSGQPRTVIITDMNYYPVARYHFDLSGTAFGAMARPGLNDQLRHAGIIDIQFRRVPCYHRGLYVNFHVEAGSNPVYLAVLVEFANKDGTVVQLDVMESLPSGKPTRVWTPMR

[10] = molecular target: T9, Novel Protein PN23485, Similar to Hordeum vulgare Coproporphyrinogen III Oxidase, chloroplast precursor, prey … (Oryza sativa, UniProt Q7XPL2 165-318)
T9 construct: prey; AD fusion; output trait library; also called OsPN23485
T9 sequence: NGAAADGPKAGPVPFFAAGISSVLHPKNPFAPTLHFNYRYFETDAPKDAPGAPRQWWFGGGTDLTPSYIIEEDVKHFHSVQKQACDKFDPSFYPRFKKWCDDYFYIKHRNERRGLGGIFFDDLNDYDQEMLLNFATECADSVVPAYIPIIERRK

[11] = molecular target: T10, O. sativa Catalase A Isozyme, prey clone aa 332-433 (Oryza sativa, UniProt P0C549 332-433)
T10 construct: prey; AD fusion; input trait library; also called OsCATA; PN20899
T10 sequence: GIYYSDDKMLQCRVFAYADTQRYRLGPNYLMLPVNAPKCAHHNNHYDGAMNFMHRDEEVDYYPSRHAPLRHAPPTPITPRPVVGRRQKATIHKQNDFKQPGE
Protocol: (§1) Yeast carrying the target gene construct was combined with yeast carrying the activation domain library. The two yeast strains mated to form diploid yeast and were plated on media that selected for expression of one or more Ga14p-responsive reporter genes. Thus, both hybrid proteins (i.e., the target “bait” protein and the activation domain “prey” protein) were expressed in a yeast reporter strain where an interaction between the test proteins results in transcription of the reporter genes […]. Colonies that arose after incubation were selected for further characterization. The activation domain plasmid was isolated from each colony obtained in the two-hybrid search. The sequence of the insert in this construct was obtained by sequence analysis (e.g., Sanger's dideoxy nucleotide chain termination method; see Ausubel et al., 1988, including updates up to 2002). Thus, the identity of positives obtained from these searches was determined by sequence analysis against proprietary and public (e.g., GENBANK®) nucleic acid and protein databases.
(§2) This example provides newly characterized rice proteins interacting with a rice chitinase, class III (OsCHIB1), and with rice cellulose synthase catalytic subunit, RSW1-like (OsCS). An automated, high-throughput yeast two-hybrid assay technology (provided by Myriad Genetics Inc., Salt Lake City, Utah) was used to search for protein interactions with the chitinase and cellulose synthase bait proteins.

[12] = molecular target: T11, O. sativa Cellulose Synthase Catalytic Subunit, RSW1-Like, prey clone aa 411-489 (Oryza sativa, UniProt A2Y0X2 411-489)
T11 construct: prey; AD fusion; input trait library; also called OsCS; PN19707
T11 sequence: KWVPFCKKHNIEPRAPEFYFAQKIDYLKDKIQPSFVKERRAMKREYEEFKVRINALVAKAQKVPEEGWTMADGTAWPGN
Protocol: as §1, §2

[13] = molecular target: T12, Novel Protein PN22154, Similar to A. thaliana Glutamyl Aminopeptidase, prey clone aa 390-562 (Oryza sativa, UniProt Q6Z6L4 390-562)
T12 construct: prey; AD fusion; input trait library; also called OsPN22154
T12 sequence: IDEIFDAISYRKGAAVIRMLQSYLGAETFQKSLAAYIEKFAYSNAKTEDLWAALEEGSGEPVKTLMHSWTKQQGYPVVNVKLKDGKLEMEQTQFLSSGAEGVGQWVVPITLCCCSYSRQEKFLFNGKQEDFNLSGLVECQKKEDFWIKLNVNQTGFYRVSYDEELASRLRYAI
Protocol: as §1, §2

T5 sequence (Q7Y0Y8 90-221): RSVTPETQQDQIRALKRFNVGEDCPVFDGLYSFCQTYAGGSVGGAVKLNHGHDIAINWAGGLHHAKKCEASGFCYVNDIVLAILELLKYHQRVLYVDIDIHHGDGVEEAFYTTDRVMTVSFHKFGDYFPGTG
T4 sequence (P0C510 287-462): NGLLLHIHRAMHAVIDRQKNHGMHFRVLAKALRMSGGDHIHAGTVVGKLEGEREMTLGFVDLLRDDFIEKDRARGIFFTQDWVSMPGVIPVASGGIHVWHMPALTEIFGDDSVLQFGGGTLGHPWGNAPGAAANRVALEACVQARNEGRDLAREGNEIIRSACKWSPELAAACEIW

B1: Elicitor responsive protein, bait fragment aa 50-145 (other)
chain: PEWNETFMFSVTHNATELIIKLMDSDSGTDDDFVGEATISLEAIYTEGSIPPTVYNVVKEEEYRGEIKVGLTFTPEDDRDRGLSEEDIGGWKQSS
notes: bait; also called OsERP; PN20696
- binding result [1]: binds
- binding result [2]: binds

B2: O. sativa Chilling-Inducible Protein CAA90866, bait clone aa 100-250 (other)
chain: GEMTERVAQEDRIPVLKASQDHLKEFISICEALELISEDELEISRQKNLIPWQIEEHRRLHGSSAKRLQKQSSRIKERKERRRRHESSCLSAPIELGGDLLRMMEKEREGMVSYYLIGSIEGFDLLDMLKKEEEIVPAVKEGKRRMVMHLL
notes: bait; also called OsCAA90866; PN20311
- binding result [3]: binds

B3: O. sativa 14-3-3 Protein Homolog GF14-c, bait fragment aa 1-150 (other)
chain: MSREENVYMAKLAEQAERYEEMVEYMEKVAKTVDVEELTVEERNLLSVAYKNVIGARRASWRIVSSIEQKEEGRGNEEHVTLIKEYRGKIEAELSKICDGILKLLDSHLVPSSTAAESKVFYLKMKGDYHRYLAEFKTGAERKEAAESTM
notes: bait; also called OsGF14-c; PN12464
- binding result [4]: binds

B4: Hypothetical Protein 006819-2510, Similar to Hemerocallis Senescence-Related Protein 5, bait fragment aa 1-150 (other)
chain: MAFRLSNSLLGILNAVTFLLSVPVLGGGIWLATRADGTECERYFSAPVIAFGVFLLLVSLAGLVGACCRVNCLLWFYLVAMFVLIVVLFCFTVFAFVVTNKGAGEAVSGRGYKEYRLGDYSNWLQKRMENSKNWNRIRSCLQDSKVCKKL
notes: as for B8
- binding result [5]: binds

B5: O. sativa Defender Against Apoptotic Death 1, bait clone aa 30-115 (other)
chain: DLYVVFAVATALIQVVYMGIVGSFPFNSFLSGVLSCIGTAVLAVCLRIQVNKDNKEFKDLPPERAFADFVLCNLVLHLVIMNFLG
notes: bait; text says OsDAD1 has 114 aa; also called OsDAD1; PN20251
- binding result [6]: binds
- binding result [7]: binds

B6: Novel Protein PN23226, Callose synthase, prey clone aa 345-432 (other)
chain: WFMSNQETSFVTIGQRVLANPLRVRFHYGHPDIFDRLFHLTRGGVSKASKIINLSEDIFAGFNSTLREGNVTHHEYMQVGKGRDVGLN
notes: prey; AD fusion; output trait library; also called OsPN23226
- binding result [8]: binds

B7: O. sativa Defender Against Apoptotic Death 1, bait clone aa 1-115 (other)
chain: MPRATSDAKLLIQSLGKAYAATPTNLKIIDLYVVFAVATALIQVVYMGIVGSFPFNSFLSGVLSCIGTAVLAVCLRIQVNKDNKEFKDLPPERAFADFVLCNLVLHLVIMNFLG
notes: as for B5
- binding result [9]: binds

Binder: B8
- binding result [10]: binds

B9: O. sativa Chitinase, Class III, bait fragment aa 10-200 (enzyme)
chain: YIGAQFTGVRFSDVPVNPGLSFHFILAFAIDYFMATQSSKPAPANGVFAPYWDTANLSPAAVAAAKAAHPNLSVILALGGDTVQNTGVNATFAPTSSVDAWVRNAADSVSGLIDAYGLDGVDVDYEHFAAGVDTFVECIGRLLTELKARHPNIATSIAPFEHPVVQRYYQPLWRRYAGVIDYVNFQFYGYG
notes: bait; also called OsCHIB1; PN19651
- binding result [11]: binds
- binding result [12]: binds
- binding result [13]: binds
